The values that follow come from patent US20090312253A1.

Assay [1] deals with LRP6 expressed on HEK cells transfected with the LRP6 plasmid. The assay is described as follows: Dkk1-AP conditioned medium on LRP6-transfected HEK cells, AP activity in cell lysate, wild type = 100%.
The target is the same in assay [2]. The experiment in a line: binding of Dkk1 to LRP6, assay not described for this mutant (data not shown).

B1: mouse Dkk1-AP mutant H210E (ligand, UniProt O54908 32-272, looked up, not shown: large carriers)
chain: TLNSVLINSNAIKNLPPPLGGAGGQPGSAVSVAPGVLYEGGNKYQTLDNYQPYPCAEDEECGSDEYCSSPSRGAAGVGGVQICLACRKRRKRCMRHAMCCPGNYCKNGICMPSDHSHFPRGEIEESIIENLGNDHNAAAGDGYPRRTTLTSKIYHTKGQEGSVCLRSSDCAAGLCCAREFWSKICKPVLKEGQVCTKHKRKGSHGLEIFQRCYCGEGLACRIQKDHHQASNSSRLHTCQRH
With B1, in assay [1], the reduction of binding to LRP6 against wild-type Dkk1 is greater than 50%.

B2: mouse Dkk1-AP mutant K217E (ligand, UniProt O54908 32-272, looked up, not shown: large carriers)
chain: TLNSVLINSNAIKNLPPPLGGAGGQPGSAVSVAPGVLYEGGNKYQTLDNYQPYPCAEDEECGSDEYCSSPSRGAAGVGGVQICLACRKRRKRCMRHAMCCPGNYCKNGICMPSDHSHFPRGEIEESIIENLGNDHNAAAGDGYPRRTTLTSKIYHTKGQEGSVCLRSSDCAAGLCCARHFWSKICEPVLKEGQVCTKHKRKGSHGLEIFQRCYCGEGLACRIQKDHHQASNSSRLHTCQRH
Turning to B2, the reduction of binding to LRP6 against wild-type Dkk1 in assay [1] was greater than 50%.

B3: mouse Dkk1-AP mutant R242E (ligand, UniProt O54908 32-272, looked up, not shown: large carriers)
chain: TLNSVLINSNAIKNLPPPLGGAGGQPGSAVSVAPGVLYEGGNKYQTLDNYQPYPCAEDEECGSDEYCSSPSRGAAGVGGVQICLACRKRRKRCMRHAMCCPGNYCKNGICMPSDHSHFPRGEIEESIIENLGNDHNAAAGDGYPRRTTLTSKIYHTKGQEGSVCLRSSDCAAGLCCARHFWSKICKPVLKEGQVCTKHKRKGSHGLEIFQECYCGEGLACRIQKDHHQASNSSRLHTCQRH
As to B3, the reduction of binding to LRP6 against wild-type Dkk1 in assay [1] is greater than 50%.

B4: Dkk1 mutant L266A (ligand, mouse, UniProt O54908 32-272, looked up, not shown: large carriers)
chain: TLNSVLINSNAIKNLPPPLGGAGGQPGSAVSVAPGVLYEGGNKYQTLDNYQPYPCAEDEECGSDEYCSSPSRGAAGVGGVQICLACRKRRKRCMRHAMCCPGNYCKNGICMPSDHSHFPRGEIEESIIENLGNDHNAAAGDGYPRRTTLTSKIYHTKGQEGSVCLRSSDCAAGLCCARHFWSKICKPVLKEGQVCTKHKRKGSHGLEIFQRCYCGEGLACRIQKDHHQASNSSRAHTCQRH
The molecule B4 had a reduction of binding to LRP6 against wild-type Dkk1 in assay [2] of 40%.

B5: mouse Dkk1-AP mutant H267E (ligand, UniProt O54908 32-272, looked up, not shown: large carriers)
chain: TLNSVLINSNAIKNLPPPLGGAGGQPGSAVSVAPGVLYEGGNKYQTLDNYQPYPCAEDEECGSDEYCSSPSRGAAGVGGVQICLACRKRRKRCMRHAMCCPGNYCKNGICMPSDHSHFPRGEIEESIIENLGNDHNAAAGDGYPRRTTLTSKIYHTKGQEGSVCLRSSDCAAGLCCARHFWSKICKPVLKEGQVCTKHKRKGSHGLEIFQRCYCGEGLACRIQKDHHQASNSSRLETCQRH
In the case of B5, the reduction of binding to LRP6 against wild-type Dkk1 in assay [1] came to 43%.
